We go through one molecule from patent US10058586B2, “Use of human small leucine zipper protein in adipocyte differentiation procedure” (Korea University Research and Business Foundation, priority 2013, dated 2018).

One test deals with PGC1α. In words: GST pull-down of GST-PPARγ2 with anti-PGC1α immunoblot in 293T cells. It counts as binding. The settings on record: 10 nM RZD for 24 hours. The procedure:
Therefore, in order to understand a regulation mechanism of sLZIP in the PPARγ2 transcriptional activity by binding to the FABP4 promoter region, an effect of sLZIP on the interaction between PPARγ2 and HDAC3 was examined. For this purpose, 293T cells were transfected with GST-HDAC3, Myc-PPARγ2 and Flag-sLZIP, and were treated or not treated with 10 nM of RZD for 24 hours. Cell lysates were subjected to GST pull-down analysis using a glutathione 4B bead, and a protein complex was analyzed in SDS-PAGE, and then immunoblotted with anti-GST, anti-Myc and anti-Flag antibodies (FIG. 6A). GST-HDAC3, GST-PPARγ2, Myc-PPARγ2, Flag-sLZIP and Ha-UB were expressed in the 293T cells, and the cells were treated with 10 nM of RZD for 24 hours. Cell lysates were subjected to GST pull-down analysis (FIG. 6B). GST-PPARγ2 and Flag-sLZIP were expressed in the 293T cells and treated with 10 nM of RZD for 24 hours. Cell lysates were subjected to GST pull-down analysis, and a protein complex was analyzed in SDS-PAGE, and then immunoblotted with anti-PGC1α, anti-GST and anti-Flag antibodies (FIG. 6C).
On the technique in general: Immunoblotting shows a protein as a band on a membrane.

Another test addresses T1, PPARγ2 (Homo sapiens, UniProt P37231).
T1 sequence (P37231 1-505): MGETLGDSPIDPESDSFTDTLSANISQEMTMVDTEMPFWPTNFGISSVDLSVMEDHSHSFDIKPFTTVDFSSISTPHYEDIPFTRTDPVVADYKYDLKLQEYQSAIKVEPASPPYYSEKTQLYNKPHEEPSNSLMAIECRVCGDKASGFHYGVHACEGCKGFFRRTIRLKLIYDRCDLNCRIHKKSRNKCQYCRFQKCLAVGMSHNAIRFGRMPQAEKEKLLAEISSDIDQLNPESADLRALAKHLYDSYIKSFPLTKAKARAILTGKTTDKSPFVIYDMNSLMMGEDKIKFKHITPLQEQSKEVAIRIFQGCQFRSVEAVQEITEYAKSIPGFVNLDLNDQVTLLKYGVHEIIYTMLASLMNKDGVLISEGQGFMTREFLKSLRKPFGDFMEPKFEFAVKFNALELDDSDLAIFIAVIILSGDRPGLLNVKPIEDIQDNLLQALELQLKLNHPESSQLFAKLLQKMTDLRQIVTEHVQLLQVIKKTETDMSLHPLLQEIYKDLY
Nature of the test: FABP4 enhancer-luciferase reporter analysis of PPARγ2 transcriptional activity in 293T cells. The test is classed as cell-based. On the set-up: expressed in transfected cells; host or cells: 293T cells. The settings on record: sLZIP 0.1 to 0.5 μg, 10 nM RZD. The procedure:
Appropriately transfected cells were washed with cold PBS twice, and a reporter lysis buffer (Promega) was used and lysed in a culture dish. Luciferase analysis was performed using a luciferase analysis system (Promega Corporation, Madison, Wis.). A luciferase activity was recorded in Luminometer 20/20^n (Turner BioSystems, Sunnyvale, Calif.) according to instructions of the manufacturer. The luciferase activity was normalized to a β-galactosidase activity. For β-galactosidase analysis, CMV-β-galactosidase was transfected with luciferase reporter genes. All pieces of data were represented as mean±standard deviation of the results from at least three independent experiments.
A DNA binding ability of sLZIP with various elements in the FABP4 enhancer region was examined. For this purpose, recombinant His-sLZIP fusion proteins (3 μg) were incubated with γ-^32P-labeled oligonucleotide probes containing expected CREB binding elements (FIG. 7B). The γ-^32P-labeled oligonucleotide probes were incubated while an amount of purified His-sLZIPs was increased. […]
Adipocyte differentiation is a well-regulated procedure. […] A promoter activity was measured according to luciferase analysis (FIG. 8B). […] Total RNA was extracted from the cells, and an mRNA expression level of mouse LZIPs was measured using RT-PCR analysis. […]

In test [1] the test system is multipotential mesenchymal progenitor cells. Nature of the test: Oil red O staining, differentiation of multipotential mesenchymal progenitor cells into adipocytes. The settings on record: C3H10T1/2 and 3T3-L1 cells. It counts as cell-based.

B1: sLZIP: human small leucine-zipper protein, isoform of LZIP, 354 amino acids, no transmembrane domain; GenBank FJ263669, SEQ ID NO: 1 (protein, listed as Homo sapiens)
chain: MELELDAGDQDLLAFLLEESGDLGTAPDEAVRAPLDWALPLSEVPSDWEVDDLLCSLLSPPASLNILSSSNPCLVHHDHTYSLPRETVSMDLESESCRKEGTQMTPQHMEELAEQEIARLVLTDEEKSLLEKEGLILPETLPLTKTEEQILKRVRRKIRNKRSAQESRRKKKVYVGGLESRVLKYTAQNMELQNKVQLLEEQNLSLLDQLRKLQAMVIEISNKTSSSSMYSSDTRGSLPAEHGVLSRQLRALPSEDPYQLELPALQSEVPKDSTHQWLDGSDCVLQAPGNTSCLLHYMPQAPSAEPPLEWPFPDLFSEPLCRGPILPLQANLTRKGGWLPTGSPSVILQDRYSG
For the molecule B1, the “recruitment of coactivator PGC-1α to PPARγ2” value with PGC1α is listed as “inhibited the complementing of a coactivator PGC-la for PPARγ2”. The “transcriptional activity of PPARγ2 (FABP4 enhancer-luciferase)” value in the test with PPARγ2 is “decreased the transcriptional activity of PPARγ2 in a concentration-dependent manner”. In test [1], the “adipocyte differentiation (oil red O staining)” value was “inhibited adipocyte differentiation”.
